In US20110224407A1 (published 2011):

T1: human IFNAR1-ECD (human, UniProt P17181 28-436)
T1 construct: extracellular domain; Purified ECD captured on the chip by antibody DB2 and cross-linked with AA3; also called purified human IFNAR-1
T1 sequence (looked up): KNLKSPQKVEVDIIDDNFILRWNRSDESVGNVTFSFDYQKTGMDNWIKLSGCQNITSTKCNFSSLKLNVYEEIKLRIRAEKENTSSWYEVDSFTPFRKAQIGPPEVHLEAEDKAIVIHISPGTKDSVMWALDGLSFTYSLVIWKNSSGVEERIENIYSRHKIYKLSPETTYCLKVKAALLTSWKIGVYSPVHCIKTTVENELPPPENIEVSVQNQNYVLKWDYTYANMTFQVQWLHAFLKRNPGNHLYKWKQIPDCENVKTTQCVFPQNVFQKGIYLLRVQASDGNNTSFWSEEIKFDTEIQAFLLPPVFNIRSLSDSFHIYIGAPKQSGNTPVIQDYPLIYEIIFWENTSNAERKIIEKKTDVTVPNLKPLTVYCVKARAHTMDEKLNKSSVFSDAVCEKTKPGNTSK

B1: human-derived chimeric IFN-α2/α1 (native) (ligand)
chain: CDLPQTHSLGSRRTLMLLAQMRKISLFSCLKDRHDFGFPQEEFGNQFQKAETIPVLHEMIQQIFNLFTTKDSSAAWDEDLLDKFCTELYQQLNDLEACVMQEERVGETPLMNADSILAVKKYFRRITLYLTEKKYSPCAWEVVRAEIMRSLSLSTNLQERLRRKE
notes: the text itself names F64; E. coli; also called IFN-αA/D; Hu-alpha2/1

Target: murine IFNAR-1 on murine cells (L-929, NFS-01) (murine) (UniProt P33896)
Experiment: cell-based or functional assay

murine IFNAR-1 on murine cells (L-929, NFS-01) (murine), sequence (P33896 27-590): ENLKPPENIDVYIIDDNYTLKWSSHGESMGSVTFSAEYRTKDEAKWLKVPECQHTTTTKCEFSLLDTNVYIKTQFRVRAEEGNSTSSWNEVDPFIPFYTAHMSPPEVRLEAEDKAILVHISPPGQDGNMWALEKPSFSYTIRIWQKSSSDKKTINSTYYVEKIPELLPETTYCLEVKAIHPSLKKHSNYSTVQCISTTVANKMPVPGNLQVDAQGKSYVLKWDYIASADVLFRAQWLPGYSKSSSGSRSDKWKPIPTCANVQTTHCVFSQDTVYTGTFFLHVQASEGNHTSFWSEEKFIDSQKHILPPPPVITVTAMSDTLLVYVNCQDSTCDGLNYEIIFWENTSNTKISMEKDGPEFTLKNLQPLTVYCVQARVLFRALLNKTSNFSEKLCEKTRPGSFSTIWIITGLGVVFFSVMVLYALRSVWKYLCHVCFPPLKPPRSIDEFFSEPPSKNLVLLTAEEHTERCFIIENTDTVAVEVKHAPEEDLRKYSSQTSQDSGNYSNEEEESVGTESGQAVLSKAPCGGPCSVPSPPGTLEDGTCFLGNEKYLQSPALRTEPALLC

Molecule	Antiproliferative Activity (% of native), Murine (NFS-01) [%]	Antiviral Activity (% of Native), Murine (L-929) [%]
IFN-α2/α1[K120A/K121A] (from UniProt A0A087WWS6 25-190) (ligand)	8	33
IFN-α2/α1[R124E] (from UniProt A0A087WWS6 25-190) (ligand)		100
IFN-α2/α1[K120E] (from UniProt A0A087WWS6 25-190) (ligand)	< 0.0005	< 0.04
IFN-α2/α1[C85A] (from UniProt A0A087WWS6 25-190) (ligand)		144
IFN-α2/α1[K120E/K121E/R124E] (from UniProt A0A087WWS6 25-190) (ligand)		< 0.01
IFN-α2/α1[K120A] (from UniProt A0A087WWS6 25-190) (ligand)	0.03	2
IFN-α2/α1[L80A] (from UniProt A0A087WWS6 25-190) (ligand)		31
IFN-α2/α1[K121E] (from UniProt A0A087WWS6 25-190) (ligand)		0.5
IFN-α2/α1[N65A/L80A/C85A/Y89A] (from UniProt A0A087WWS6 25-190) (ligand)		55
IFN-α2/α1[K120E/K121E] (from UniProt A0A087WWS6 25-190) (ligand)	< 0.0001	< 0.04
IFN-α2/α1[L80A/C85A/Y89A] (from UniProt A0A087WWS6 25-190) (ligand)		100
IFN-α2/α1[Y89A] (from UniProt A0A087WWS6 25-190) (ligand)		38

Target: human IFNAR-1 on human cells (HeLa, WISH, A549) (human) (UniProt P17181)
Experiment: cell-based or functional assay

Molecule	Antiproliferative Activity (% of native), Human (WISH) [%]	Antiviral Activity (% of Native), Human (HeLa) [%]	Antiviral Activity (% of Native), Human (Wish) [%]	Antiproliferative Activity (% of Native EC50), Human (Wish) [%]	Antiviral Activity (% of Native EC50), Human (HeLa) [%]	Antiviral Activity (% of Native EC50), Human (Wish) [%]	Antiproliferative Activity, Human (Wish; %) [%]	Antiviral Activity (% of native), Human; *Assay on human A549 cells [%]	Antiviral activity (relative %), IFN-α2/α1, Human HeLa (partial results) [%]
IFN-α2/α1[K120A/K121A] (from UniProt A0A087WWS6 25-190) (ligand)	0.5	8.3	13.8						
IFN-α2/α1[C85A/Y89A] (from UniProt A0A087WWS6 25-190) (ligand)		143	183						
IFN-α2/α1[R124E] (from UniProt A0A087WWS6 25-190) (ligand)		20							
IFN-α2/α1[K120E] (from UniProt A0A087WWS6 25-190) (ligand)	< 0.02	< 0.04	< 0.02						
IFN-α2b-[Arg120Glu/Lys121Glu] (from UniProt P01563 24-188) (ligand)				< 0.02	< 1.3	< 0.002			
IFN-α2 NLYY-120A (N65A/L80A/Y85A/Y89A/R120A) (from UniProt P01563 24-188) (ligand)				< 0.001	< 0.002	< 0.001			
IFN-α2/α1 5-site alanine substitution mutant (F64/N65/L80/C85/Y89) (from UniProt A0A087WWS6 25-190) (ligand)		4.2	11						
IFN-α2/α1[C85A] (from UniProt A0A087WWS6 25-190) (ligand)		141							
IFN-α2b[R120A] (from UniProt P01563 24-188) (ligand)					2.3		0.05		
IFN-α2/α1[K120E/K121E/R124E] (from UniProt A0A087WWS6 25-190) (ligand)	< 0.2	< 0.04	< 0.1						
IFN-α2/α1[K120A] (from UniProt A0A087WWS6 25-190) (ligand)	0.7	2	9.7						
IFN-α2/α1[L80A] (from UniProt A0A087WWS6 25-190) (ligand)								19	
IFN-α2 NLYY-117A (N65A/L80A/Y85A/Y89A/L117A) (from UniProt P01563 24-188) (ligand)						0.03			
IFN-α2/α1[K121E] (from UniProt A0A087WWS6 25-190) (ligand)		8							
IFN-α2/α1[N65A/L80A/C85A/Y89A] (from UniProt A0A087WWS6 25-190) (ligand)									63
IFN-α2/α1[K120E/K121E] (from UniProt A0A087WWS6 25-190) (ligand)	< 0.05	< 0.08	0.006						
IFN-α2/α1[L80A/C85A/Y89A] (from UniProt A0A087WWS6 25-190) (ligand)		54	204						
IFN-α2/α1[Y89A] (from UniProt A0A087WWS6 25-190) (ligand)		69	96						

Target: T1, human IFNAR1-ECD
Experiment: SPR, IFNAR-1-ECD captured by antibody
Method: Binding to purified human IFNAR-1 and IFNAR-2 is measured with the Protein Interaction Array system (Bio-Rad) according to published methods. A solution of 0.005% Tween20 in PBS pH 7.4 was used as running buffer at a flow rate of 30 μl/min. […] Thereafter, five of the six channels were reacted with IFNAR1-ECD or IFNAR2-ECD (180 μl at a concentration of 0.5 μM), leaving one channel free as reference. This was followed by cross-linking a second antibody. […] Data were analyzed with the BIAeval 4.1 software, using, the standard Langmuir models for fitting kinetic data. Dissociation constants KD were determined from the rate constants according to:

Molecule	fold stronger affinity than IFN-α2 [fold]	ratio of KD to that of IFN-α2
B1	~5	~0.2
